Test results taken from the RNAGym collection of RNA variant scans (doi:10.1073/pnas.2313332121).

B1: TPR t1 (parent)
chain: GACCAAUCUGCCCUCAGAGCUCGAGAACAUCUUCGGAUGCAGAGGAGGCAGGCUUCGGUGGCGCGAUAGCGCCAACGUCCUCAACCUCCAAUGCAUCCCACCACAUGAUGAUGCCUGAAGAGCCUUGGUUUUUUG

Variants of: B1
Test: polymerase ribozyme fitness, log enrichment relative to wild type (log ratio); higher = more active; in vitro selection for triplet polymerase activity
Method in brief: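 The heterodimeric triplet polymerase ribozyme's subunits were each mutagenized into PCR-built libraries and transcribed. Every library was selected once, in triplicate, by annealing with a biotinylated primer, the partner subunit and triplets, incubating frozen at −7 °C, gel-excising extended constructs, capturing on streptavidin beads and running RT-PCR. Input and output libraries were Illumina-sequenced, with genotypes kept only at ≥10 input reads and ≥1 read per output. Fitness, from inverse-variance-weighted replicate averages, is the base-2 logarithm of genotype enrichment over wild-type enrichment.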

| Variant | polymerase ribozyme fitness (log ratio) |
| --- | --- |
| GACCAAUCUGCCCUCAGAGCUCGAGAUCAUCUUCGGAUGCAGAGGAGGCAGGCUUCGGUGGCGCGAUAGCGCCAACGUCCUCAACCUCCAAUGCCUCCCACCACAUGAUGAUGCCUGAAGAGCCUUGGUUUUUUG [A27U A95C] | -4.26 |
| GACCAAUCUGCCCUCAGAGCUCGAGAUCAUCUUCGGAUGCAGAGGAGGCAGGCUUCGGUGGUGCGAUAGCGCCAACGUCCUCAACCUCCAAUGCAUCCCACCACAUGAUGAUGCCUGAAGAGCCAUGGUUUUUUG [A27U C62U U125A] | -3.89 |
| GACCAAUCUGCCCUCAGAGCUCGAGAGCAUCUUCGGAUGCAGAGGAGGCAGGCUUCGGUGGCGCGAUAGCGCCAACGUCCUCAACCCCCAAUGCAUCCCACCACAUGAUGAUGCCUGAAGAGCCUUGGUUUUUUG [A27G U87C] | -1.74 |
| GACCAAUCUGCCCUCAGAGCUCGAGAGCAUCUUCGGAAGCAGAGGAGGCAGGCUUCGGUGGCGCGAUAGCGCCAACGUCCUCAACCUCCAAUGCAUCCCACCACAUGAUGAUGCCUGAAGAGCCUUGGUUUUUUG [A27G U38A] | -3.17 |
| GACCAAUCUGCCCUCAGAGCUCGAGAUCAUCUUUGGAUGCAGAGUAGGCAGGCUUCGGUGGCGCGAUAUCGCCAACGUCCUCAACCUCCAAUGCAUCCCACCACAUGAUGAUGCCUGAAGAGCCUUGGUUUUUUG [A27U C34U G45U G69U] | -5.7 |
| GACCAAUCUGCCCUCAGAGCUCGAGAGCAUCUUCGGAUGCAGAGGAGGCAGGCUUCGGUGGCGCGAUAUCGCCUACGUCCUCAACCUCCAAUGCAUCCCACCACAUGAUGAUGCCUGAAGAGCCUUGGUUUUUUG [A27G G69U A74U] | -2.9 |
| GACCAAUCUGCCCUCAGAGCUCGAGAUCAUCUUCGGAUGCAGAGGAGGCAGGCUUCGGUGGCGCGAUAGCGCCAACGUCCUCACCCUCCAAUGCAUCCCACCACAUGAUGAUGCCUGAAUAGCCCUGGUUUUUUG [A27U A84C G120U U125C] | -1.52 |
| GACCAAUCUGCCCUCAGAGCUCGAGAUCAUCUUCGGAUGGAGAGGAGGCAGGCUUCUGUGGCGCGAUAGCGCCAACGUCCUCAACCUCCAAUGCAUCCCACCACAUGAUGAAGCCUGAAGAGCCUUGGUUUUUUG [A27U C40G G57U U112A] | -3 |
| GACCAAUCUGCCCUCAGAGCUCGAGAUCAUCUUCGGCUGCAGAGGAGGCAGGCUUCGGUGGCGCGAUAGCGCCAACGUCCUCAACCUCCAAUGCAUCCCACCACAUGAUGAUGCCUGAAGAGCCUUGGUUUUUUG [A27U A37C] | -2.87 |
| GACCAAUCUGCCCUCAGAGCUCGAGAUCAUCUUCGGAUGCAGAGGAGGCGGGCUUCGGUGGCGCGAUAGCGCCAACGUCCUCAACCUCCAAUGCAUCCCACCACAUGAUGAUGCCUGAAGAGCCUUGGUUUUAUG [A27U A50G U133A] | -2.6 |
| GACCAAUCUGCCCUCAGAGCUCGAGAUCAUCUUCGGAUGCAGAGGAGGUAGGCUUCGGUGGCGCGAUAGCGCCAACGUGCUCAACUUCCAAUGCAUCCCACCACAUGAUGAUGCCUGAAGAGCCUUGGUUUUUUG [A27U C49U C79G C86U] | -4.94 |
| GACCAAUCUGCCCUCAGAGCUCGAGAGCAUCUUCGGAUGCAGAGGAGGCAGGCUUCGGUGGCGCGAUAGCGCCAACGUCCUCAACCUCCAAUGCAUCCCACCACAUGAUGAUGCCUGAAAAGCCUUGGUUUUUUG [A27G G120A] | -1.1 |
| GACCAAUCUGCCCUCAGAGCUCGAGAGCAUCUUCGGAUGCAGAGGAGGCAGGCUUCGGUGGCGCGAUAGCGCCAACGUCCUCAACCUCCAAUGCAUCCCACCACAUGAUGAUGCCUGAACAGCCUUGGUUUUUUG [A27G G120C] | -0.195 |
| GACCAAUCUGCCCUCAGAGCUCGAGAUCCUCUUCGGAUGCAGAGGAAGCAGGGUUCGGUGGCGCGAUAGCGCCAACGUCCUCAACCUCCAAUGCAUCCCACCACAUGAUGAUGCCUGAAGCGCCUUGGUUUUUUG [A27U A29C G47A C53G A121C] | -3.53 |
| GACCAAUCUGCCCUCAGAGCUCGAGAGCAUCUUCGGAUGCAGAGGAGGCAGGCUUCGGUGGCGCGAUAGCGCCAACGUCCUCAACCUCCAAUGCAUCCCACCACAUGAUGAUUCCUGAAGAGCCUUGGUUUUUUG [A27G G113U] | -3.25 |
| GACCAAUCUGCCCUCAGAGCUCGAGAUCAUCUUCGGAUGCAGAGGAGGCAGGCUUAGGUGGCGCGAUAGUGCCAACGUCCUCAACCUCCAAUGCAACCCACCACAUGAUGAUGCCUGAAGAGCCUUGGUUUUUUG [A27U C56A C70U U96A] | -5.71 |
| GACCAAUCUGCCCUCAGAGCUCGAGAUCAUCUUCGGAUGCAGAGGAGGCAGGCUUCGGUGGAGCGAUAGCGCCAACGUCCUCAACCUCCAAUGCAUCCCACCACAUGAUGAUGCCUGAAGAGCCUUGGUUUUUUG [A27U C62A] | -4.1 |
| GACCAAUCUGCCCUCAGAGCUCGAGAGCAUCUGCGGAUGCAGAGGAGGCAGGCUUCGGUGGCCCGAUAGCGCCAACGUCCUCAACCUCCAAUGCAUCCCACCACAUGAUGAUGCCUGAAAAGUCUUGGUUUUUUG [A27G U33G G63C G120A C123U] | -5.79 |
| GACCAAUCUGCCCUCAGAGCUCGAGAUCAUCUUCGGAUGCAGAGGUGGCAGGCUUCGGUGACGCGAUAGCGCCAACGUCCUCAAUCUCCAAUGUAUCCCACCACAUGAUGAUGCCUGAAGAGCCUUGGUUUUUUG [A27U A46U G61A C85U C94U] | -3.53 |
| GACCAAUCUGCCCUCAGAGCUCGAGAUCAUCUUCGGAUGCUGAGGAGGCAGGCUUCGGUGGCGCGAUAGCGCCAACGUCCUCAACCUCCAAUGCAUCCCACCACAUGAUGAUGCCUGAAGAGCCUUGGUUUUUUG [A27U A41U] | -4.42 |
| GACCAAUCUGCCCUCAGAGCUCGAGAGCAUCUUCGGAUGCAGAGGAGGCAGGCUUCGGUGGCGCGAUAGCGCCAACGUCCUCAACCUCCAAUGCAUCCCACCACAUGAUUAUGCCUGAAGAGCCUUGGUUUUUUG [A27G G110U] | -3.11 |
